Data on four molecules can be found in patent US20240209043A1 (ORAL SUBSIDIARY SUN YAT SEN UNIVERSITY HOSPITAL, published 2024).

Where no end group is shown, it is not given here.

In general, koff refers to the rate constant with which the complex falls apart. Usually kon stands for a measure of how fast the partners come together. The term Kd denotes the equilibrium constant for the complex coming apart. In general, IC50 refers to the concentration needed to halve the response being measured.

The target of assay [1] is T1, Recombinant Human PD-1 protein (PD1-H5221, Acro Biosystems) (human, UniProt Q15116 25-167).
T1 construct: Bought reagent, amine-coupled to a CM5 chip for SPR
As to the kind of experiment: SPR (Biacore T100), recombinant human PD-1 coupled to a CM5 chip, peptide as analyte at 0.03125-2 µM. The method, then:
(§1) The affinity of the peptides was tested with Biocore T100 through surface plasmon resonance (SPR) technique. […] Finally, the affinities (Kd-value) of the peptides were calculated by fitting curves in the sensor diagram in Biacore software.

The target in assay [2] is T2, Recombinant Human PD-L1 protein (PD1-H82F3, Acro Biosystems) (human, UniProt Q9NZQ7 19-238).
T2 construct: Bought reagent
As to the kind of experiment: SPR (Biacore T100), recombinant human PD-L1 coupled to a CM5 chip, peptide as analyte at 0.03125-2 µM. The method, then:
as §1
In general terms: Surface plasmon resonance follows binding to a sensor surface in real time, without labels.

In assay [3] the target is T2, Recombinant Human PD-L1 protein …. As to the kind of experiment: SPR (Biacore T100), recombinant human PD-L1 coupled to CM5 chip, peptide as analyte. The method, then:
as §1

For assay [4], the target named is T1, Recombinant Human PD-1 protein …. As to the kind of experiment: SPR (Biacore T100), recombinant human PD-1 coupled to CM5 chip, peptide as analyte. The method, then: as §1
Assay [5] has as its target T3, PD-1 on the surface of cells (Jurkat T cells stimulated with PMA and ionomycin; iCIKs) (human, UniProt Q15116 25-288).
T3 construct: whole, on cells; Endogenous PD-1 of human cells; also called PD-1 on the surface of Jurkat T cells; PD-1-expressing Jurkat T cells
Nature of the assay: flow cytometry blocking assay: peptide mixed with recombinant human PD-L1, PD-L1 binding to PD-1-expressing stimulated Jurkat T cells read with APC streptavidin. Here is the method: (§2) The Jurkat T cells were divided into two groups, an experimental group and a control group, wherein in the experimental group, 50 ng/ml of Phorbol 12-myristate 13-acetate (PAM) and 1 ug/ml of Ionomycin Calcium Salt (Ionomycin) were used to stimulate the cells, and in the control group, Jurkat T cells were unstimulated. The cells (5×10⁵) were collected in each tube, and washed once with FACS buffer (PBS with 2% BSA). […] FACS buffer was used for washing the cells three times, and 0.12 ug/ml of APC Streptavidin (405207, Biolegend) was added to each tube and the incubation was performed for 1 hour at 4° C., and then the cells were washed three times with FACS buffer again, and 500 μl of PBS was added to resuspend the cells, which were further transferred to flow tubes and analyzed by flow cytometry.
(In flow cytometry, cells or beads pass a laser one at a time.)

The target in assay [6] is T3, PD-1 on the surface of cells (Jurkat T …). Nature of the assay: flow cytometry blocking assay: peptide mixed with recombinant human PD-L1, PD-L1 binding to PD-1-expressing stimulated Jurkat T cells read with APC streptavidin; nABP486 also binds PD-L1 itself (Figure 2D). The method, then: as §2
The target in assay [7] is T1, Recombinant Human PD-1 protein …. Nature of the assay: SPR (Biacore T100), recombinant human PD-1 coupled to a CM5 chip, peptide as analyte at 0.3125-20 µM. Here is the method: as §1

T2 sequence (Q9NZQ7 19-238 limits assumed): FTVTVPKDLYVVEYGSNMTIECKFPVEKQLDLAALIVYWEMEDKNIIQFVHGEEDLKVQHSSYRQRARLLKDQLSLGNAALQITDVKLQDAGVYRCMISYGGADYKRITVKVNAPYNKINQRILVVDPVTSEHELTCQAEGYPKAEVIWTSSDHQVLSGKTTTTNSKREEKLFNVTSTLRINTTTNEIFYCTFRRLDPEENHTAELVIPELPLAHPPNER
T3 sequence (Q15116 25-288): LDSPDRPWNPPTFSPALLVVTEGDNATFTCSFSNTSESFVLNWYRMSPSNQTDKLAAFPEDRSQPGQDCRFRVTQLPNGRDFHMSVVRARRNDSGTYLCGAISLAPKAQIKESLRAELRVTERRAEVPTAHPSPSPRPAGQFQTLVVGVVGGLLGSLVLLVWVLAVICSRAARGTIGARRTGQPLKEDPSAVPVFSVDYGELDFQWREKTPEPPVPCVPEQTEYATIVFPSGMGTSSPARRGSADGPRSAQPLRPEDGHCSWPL
T1 sequence (Q15116 25-167 limits assumed): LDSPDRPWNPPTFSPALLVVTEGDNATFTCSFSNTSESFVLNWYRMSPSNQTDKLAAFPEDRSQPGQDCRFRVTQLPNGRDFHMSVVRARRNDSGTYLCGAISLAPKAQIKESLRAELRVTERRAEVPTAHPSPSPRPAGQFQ

B1: nABP786 (peptide)
chain 1: SHHHRLKLKEIANCSPTQFKC
chain 2: SHHHRL
modifications: cysteine pairing not given here; also: lactam at chain A 7 at chain B 6 to a chain's C-terminus
For B1, the koff in assay [1] amounted to 0.000453 s⁻¹; in assay [2], 0.000486 s⁻¹. The on-rate constant (kon) was determined as 77600 M⁻¹ s⁻¹ in assay [1] and 29000 M⁻¹ s⁻¹ in assay [2]. The equilibrium dissociation constant (Kd) in assay [3] was 16.7 nM; in assay [4], 5.84 nM.

B2: nABP386 (peptide)
chain 1: SRLKEIANSPTQFWRMVARNTLGNHAKQSLNIEHA
chain 2: SHHHRL
modifications: also: bond at chain A 27 at chain B 6 to a chain's C-terminus
notes: Branched synthetic peptide (Fmoc solid-phase synthesis)
Regarding B2, in assay [1], the off-rate constant (koff) is 0.00293 s⁻¹ and the association rate constant (kon) turned out to be 39000 M⁻¹ s⁻¹. For the same molecule, the half-inhibitory concentration (IC50) in assay [5] worked out at 3420 nM. Also, the Kd in assay [4] was 75.1 nM.

B3: nABP486 (peptide)
chain 1: SHHHRLKLKEIANSPTQFWRMVARNTLGNGAKQSLNIEHA
chain 2: SHHHRL
modifications: also: lactam at chain A 7 at chain B 6 to a chain's C-terminus
notes: as for B2
Turning to B3, the values for the off-rate constant (koff) in assay [1] and in assay [2] were 0.00589 s⁻¹ and 0.00204 s⁻¹, respectively. Further, the figures for the association rate constant (kon) in assay [1] and in assay [2] were 496000 M⁻¹ s⁻¹ and 38900 M⁻¹ s⁻¹, respectively. The values for the Kd in assay [2], in assay [3] and in assay [4] were 52.4 nM, 54.2 nM and 11.9 nM, respectively. In addition, the IC50 in assay [6] was found to be 2580 nM.
Consider SRLKEIANSPTQFWRMVARNTLGGAKQSLNIEHARL (not fully specified, also called PD-1-nABP284) [nABP284], for which the Kd in assay [7] is 11800 nM. For the same molecule, the IC50 in assay [5] was 9610 nM.
